Results reported in article PMC4859480.

Target: HHV-6B U14 N-terminal domain (U14-NTD), residues 2-458 (human herpesvirus 6B (HHV-6B) strain HST)
Experiment: crystal structure

HHV-6B U14 N-terminal domain (U14-NTD), residues 2-458 (domain or fragment)
stoichiometry N: 2
